Measured values from patent US20020019014A1, “Methods of identifying prosaposin receptor agonists and antagonists” (priority 1997, published 2002).
Entries after “also recorded” stand apart in the source; their conditions may differ. Where two headings read alike, the source gives them in different places.

Tests used:
MAPK = assay: MAP kinase (MAPK) phosphorylation assay; format: cell-based; conditions: after binding to the prosaposin receptor
Description: PC12 cells are grown to 85% confluence in DME high glucose media containing 10% FBS, 5% horse serum, 100 U/ml penicillin, 100 μg/ml streptomycin and 250 pg/ml fimgizone. Approximately 2×10^6 cells per 100 mm plate are placed in serum-free media for 24 hours prior to addition of compounds capable of binding to the prosaposin receptor. Positive controls are as described previously. Cells are stimulated with the compound of interest, then lysed on ice in 1 ml of 50 mM Tris-HCl, pH 8.0, 150 mM NaCl, 1 mM EGTA, pH 8.0, 100 mM NaF, pH 8.0, 10% glycerol, 1.5 mM MgCl2. 1% (v/v) Triton X-100, 1 mM sodium orthovanadate, 1 mM phenylmethylsulfonyl fluoride (PMSF), 10 μg/ml leupeptin, 20 μg/ml aprotinin. Unsolubilized materials are removed by ultracentrifugation at 12,000 x g at4° C.
Equal amounts of cell lysates are resolved by sodium dodecyl sulfate-polyacrylamide gel electrophoresis (SDS-PAGE) and transferred to a PVDF membrane (Millipore, Bedford, Mass.). Phosphorylated MAPK is identified using PhosphoPlus™ MAPK antibody and an alkaline phosphatase conjugated secondary antibody that emits light in the presence of a chemiluminescent substrate (New England Biolabs, Beverly, Mass.). […] Densitometric data are expressed as a ratio of MAPK-P absorbance units divided by MAPK-C absorbance units. […]

NS20Y cells = conditions: as described in U.S. Pat. No. 5,571,787 and PCT/US94/08453, cited from earlier work
prosaposin receptor [1] = conditions: cited from earlier work
several proteins = conditions: cited from earlier work
[2] = tested on: Newborn mouse cerebellar explants; conditions: as described in U.S. Pat. No. 5,571,787 and PCT/US94/08453; cited from earlier work
[3] = tested on: NS20Y neuroblastoma cells; conditions: as described in U.S. Pat. No. 5,571,787 and PCT/US94/08453; cited from earlier work
prosaposin receptor [4] = conditions: cited from earlier work; remark: listed apart in the source

B1: prosaposin: 70 kilodalton glycoprotein, precursor of saposins A, B, C and D (protein, UniProt P07602 17-524, looked up)
pro-form: GPVLGLKECTRGSAVWCQNVKTASDCGAVKHCLQTVWNKPTVKSLPCDICKDVVTAAGDMLKDNATEEEILVYLEKTCDWLPKPNMSASCKEIVDSYLPVILDIIKGEMSRPGEVCSALNLCESLQKHLAELNHQKQLESNKIPELDMTEVVAPFMANIPLLLYPQDGPRSKPQPKDNGDVCQDCIQMVTDIQTAVRTNSTFVQALVEHVKEECDRLGPGMADICKNYISQYSEIAIQMMMHMQPKEICALVGFCDEVKEMPMQTLVPAKVASKNVIPALELVEPIKKHEVPAKSDVYCEVCEFLVKEVTKLIDNNKTEKEILDAFDKMCSKLPKSLSEECQEVVDTYGSSILSILLEEVSPELVCSMLHLCSGTRLPALTVHVTQPKDGGFCEVCKKLVGYLDRNLEKNSTKQEILAALEKGCSFLPDPYQKQCDQFVAEYEPVLIEILVEVMDPSFVCLKIGACPSAHKPLLGTEKCIWGPSYWCQNTETAAQCNAVEHCKRHVWN
modifications: pro-form
notes: 70 kilodalton glycoprotein, precursor of saposins A, B, C and D
- phosphorylation of MAPK (MAPK): stimulate phosphorylation of MAPK
- prevention of neural cell death (NS20Y cells): prevent neural cell death
- prevention of neural cell death (NS20Y cells; listed as Prosaposin): prevent neuronal cell death
- binding to receptor (prosaposin receptor [1]): binds to a cell surface receptor
- incorporation of 32P into several proteins (several proteins): stimulates incorporation of ^32P into several proteins
- stimulation of myelination [2]: stimulate myelination
- neurite outgrowth [3]: induce neurite outgrowth

B2: saposin C: heat-stable glycoprotein generated by proteolytic processing of prosaposin (protein, UniProt P07602 311-390, looked up)
Saposin-C: SDVYCEVCEFLVKEVTKLIDNNKTEKEILDAFDKMCSKLPKSLSEECQEVVDTYGSSILSILLEEVSPELVCSMLHLCSG
modifications: Saposin-C
- phosphorylation of MAPK (MAPK): stimulate phosphorylation of MAPK
- prevention of neural cell death (NS20Y cells): prevent neuronal cell death; also recorded: prevent neural cell death
- stimulation of myelination [2]: stimulate myelination
- neurite outgrowth [3]: induce neurite outgrowth

B3: saposin A: saposin from prosaposin; inactive compound that binds the receptor without stimulating effector functions (protein, UniProt P07602 60-142, looked up)
Saposin-A: SLPCDICKDVVTAAGDMLKDNATEEEILVYLEKTCDWLPKPNMSASCKEIVDSYLPVILDIIKGEMSRPGEVCSALNLCESLQ
modifications: Saposin-A
- binding to receptor (prosaposin receptor [1]): binds to the receptor
- stimulation of receptor effector functions (prosaposin receptor [4]): without stimulating any of its effector functions
